Starred links: 1 amine or outer side, 2 acyl side, 3 side chain; linkers in the order of their positions; H or OH if unused. Non-standard residues stand in square brackets, D forms with d. Groups on a side chain read outwards from the residue. No end group written: not given here. *: point of attachment. C20 diacid = O=C(O)CCCCCCCCCCCCCCCCCCC(=O)*; C18 diacid = O=C(O)CCCCCCCCCCCCCCCCC(=O)*; γGlu = O=C(O)[C@H](CCC(=O)[*:2])N[*:1]; NMeI = CC[C@H](C)[C@H](NC)C(=O)O; AEEA = NCCOCCOCC(=O)O
T1: human CRHR1 (corticotropin releasing hormone receptor-1) (human, UniProt P34998 24-415)
T1 sequence (looked up): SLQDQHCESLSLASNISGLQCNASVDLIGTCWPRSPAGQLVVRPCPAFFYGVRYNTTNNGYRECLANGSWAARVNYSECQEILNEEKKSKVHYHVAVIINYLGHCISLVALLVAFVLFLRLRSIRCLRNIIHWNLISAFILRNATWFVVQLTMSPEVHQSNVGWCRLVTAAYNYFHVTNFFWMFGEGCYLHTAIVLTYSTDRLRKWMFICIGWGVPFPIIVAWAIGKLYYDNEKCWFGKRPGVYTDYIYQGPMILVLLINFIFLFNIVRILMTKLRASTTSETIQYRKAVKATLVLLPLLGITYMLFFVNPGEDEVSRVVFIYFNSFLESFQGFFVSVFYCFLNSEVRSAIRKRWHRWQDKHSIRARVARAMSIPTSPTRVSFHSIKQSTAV

B1: Example 6 (SEQ ID NO: 6) (peptide)
peptide: [NMeI]VLSLDVPIGLLQILLEQEKQEKEKQQAK([AEEA-AEEA-γGlu-γGlu-C20 diacid])TNAEILAQV-NH2
modifications: N-terminus assumed
SMILES: CC[C@H](C)[C@H](NC)C(=O)N[C@H](C(=O)N[C@@H](CC(C)C)C(=O)N[C@@H](CO)C(=O)N[C@@H](CC(C)C)C(=O)N[C@@H](CC(=O)O)C(=O)N[C@H](C(=O)N1CCC[C@H]1C(=O)N[C@H](C(=O)NCC(=O)N[C@@H](CC(C)C)C(=O)N[C@@H](CC(C)C)C(=O)N[C@@H](CCC(N)=O)C(=O)N[C@H](C(=O)N[C@@H](CC(C)C)C(=O)N[C@@H](CC(C)C)C(=O)N[C@@H](CCC(=O)O)C(=O)N[C@@H](CCC(N)=O)C(=O)N[C@@H](CCC(=O)O)C(=O)N[C@@H](CCCCN)C(=O)N[C@@H](CCC(N)=O)C(=O)N[C@@H](CCC(=O)O)C(=O)N[C@@H](CCCCN)C(=O)N[C@@H](CCC(=O)O)C(=O)N[C@@H](CCCCN)C(=O)N[C@@H](CCC(N)=O)C(=O)N[C@@H](CCC(N)=O)C(=O)N[C@@H](C)C(=O)N[C@@H](CCCCNC(=O)COCCOCCNC(=O)COCCOCCNC(=O)CC[C@H](NC(=O)CC[C@H](NC(=O)CCCCCCCCCCCCCCCCCCC(=O)O)C(=O)O)C(=O)O)C(=O)N[C@H](C(=O)N[C@@H](CC(N)=O)C(=O)N[C@@H](C)C(=O)N[C@@H](CCC(=O)O)C(=O)N[C@H](C(=O)N[C@@H](CC(C)C)C(=O)N[C@@H](C)C(=O)N[C@@H](CCC(N)=O)C(=O)N[C@H](C(N)=O)C(C)C)[C@@H](C)CC)[C@@H](C)O)[C@@H](C)CC)[C@@H](C)CC)C(C)C)C(C)C
B2: Example 3 (SEQ ID NO: 3) (peptide)
peptide: [NMeI]VLSLDVPIGLLQILLEQEKQEKEKQQAK([AEEA-AEEA-γGlu-γGlu-C18 diacid])TNAQILAQV-NH2
modifications: N-terminus assumed
SMILES: CC[C@H](C)[C@H](NC)C(=O)N[C@H](C(=O)N[C@@H](CC(C)C)C(=O)N[C@@H](CO)C(=O)N[C@@H](CC(C)C)C(=O)N[C@@H](CC(=O)O)C(=O)N[C@H](C(=O)N1CCC[C@H]1C(=O)N[C@H](C(=O)NCC(=O)N[C@@H](CC(C)C)C(=O)N[C@@H](CC(C)C)C(=O)N[C@@H](CCC(N)=O)C(=O)N[C@H](C(=O)N[C@@H](CC(C)C)C(=O)N[C@@H](CC(C)C)C(=O)N[C@@H](CCC(=O)O)C(=O)N[C@@H](CCC(N)=O)C(=O)N[C@@H](CCC(=O)O)C(=O)N[C@@H](CCCCN)C(=O)N[C@@H](CCC(N)=O)C(=O)N[C@@H](CCC(=O)O)C(=O)N[C@@H](CCCCN)C(=O)N[C@@H](CCC(=O)O)C(=O)N[C@@H](CCCCN)C(=O)N[C@@H](CCC(N)=O)C(=O)N[C@@H](CCC(N)=O)C(=O)N[C@@H](C)C(=O)N[C@@H](CCCCNC(=O)COCCOCCNC(=O)COCCOCCNC(=O)CC[C@H](NC(=O)CC[C@H](NC(=O)CCCCCCCCCCCCCCCCC(=O)O)C(=O)O)C(=O)O)C(=O)N[C@H](C(=O)N[C@@H](CC(N)=O)C(=O)N[C@@H](C)C(=O)N[C@@H](CCC(N)=O)C(=O)N[C@H](C(=O)N[C@@H](CC(C)C)C(=O)N[C@@H](C)C(=O)N[C@@H](CCC(N)=O)C(=O)N[C@H](C(N)=O)C(C)C)[C@@H](C)CC)[C@@H](C)O)[C@@H](C)CC)[C@@H](C)CC)C(C)C)C(C)C
B3: Example 1 (SEQ ID NO: 1) (peptide)
peptide: Ac-IVLSLDVPIGLLQILLEQEKQEKEKQQAK([AEEA-AEEA-γGlu-γGlu-C18 diacid])TNAQILAQV-NH2
SMILES: CC[C@H](C)[C@H](NC(C)=O)C(=O)N[C@H](C(=O)N[C@@H](CC(C)C)C(=O)N[C@@H](CO)C(=O)N[C@@H](CC(C)C)C(=O)N[C@@H](CC(=O)O)C(=O)N[C@H](C(=O)N1CCC[C@H]1C(=O)N[C@H](C(=O)NCC(=O)N[C@@H](CC(C)C)C(=O)N[C@@H](CC(C)C)C(=O)N[C@@H](CCC(N)=O)C(=O)N[C@H](C(=O)N[C@@H](CC(C)C)C(=O)N[C@@H](CC(C)C)C(=O)N[C@@H](CCC(=O)O)C(=O)N[C@@H](CCC(N)=O)C(=O)N[C@@H](CCC(=O)O)C(=O)N[C@@H](CCCCN)C(=O)N[C@@H](CCC(N)=O)C(=O)N[C@@H](CCC(=O)O)C(=O)N[C@@H](CCCCN)C(=O)N[C@@H](CCC(=O)O)C(=O)N[C@@H](CCCCN)C(=O)N[C@@H](CCC(N)=O)C(=O)N[C@@H](CCC(N)=O)C(=O)N[C@@H](C)C(=O)N[C@@H](CCCCNC(=O)COCCOCCNC(=O)COCCOCCNC(=O)CC[C@H](NC(=O)CC[C@H](NC(=O)CCCCCCCCCCCCCCCCC(=O)O)C(=O)O)C(=O)O)C(=O)N[C@H](C(=O)N[C@@H](CC(N)=O)C(=O)N[C@@H](C)C(=O)N[C@@H](CCC(N)=O)C(=O)N[C@H](C(=O)N[C@@H](CC(C)C)C(=O)N[C@@H](C)C(=O)N[C@@H](CCC(N)=O)C(=O)N[C@H](C(N)=O)C(C)C)[C@@H](C)CC)[C@@H](C)O)[C@@H](C)CC)[C@@H](C)CC)C(C)C)C(C)C
B4: Example 7 (SEQ ID NO: 7) (peptide)
peptide: [NMeI]VTSLDVPIGLLQILIEQEKQEKEKQQAK([AEEA-AEEA-γGlu-γGlu-C20 diacid])TNAEILAQV-NH2
modifications: N-terminus assumed
SMILES: CC[C@H](C)[C@H](NC)C(=O)N[C@H](C(=O)N[C@H](C(=O)N[C@@H](CO)C(=O)N[C@@H](CC(C)C)C(=O)N[C@@H](CC(=O)O)C(=O)N[C@H](C(=O)N1CCC[C@H]1C(=O)N[C@H](C(=O)NCC(=O)N[C@@H](CC(C)C)C(=O)N[C@@H](CC(C)C)C(=O)N[C@@H](CCC(N)=O)C(=O)N[C@H](C(=O)N[C@@H](CC(C)C)C(=O)N[C@H](C(=O)N[C@@H](CCC(=O)O)C(=O)N[C@@H](CCC(N)=O)C(=O)N[C@@H](CCC(=O)O)C(=O)N[C@@H](CCCCN)C(=O)N[C@@H](CCC(N)=O)C(=O)N[C@@H](CCC(=O)O)C(=O)N[C@@H](CCCCN)C(=O)N[C@@H](CCC(=O)O)C(=O)N[C@@H](CCCCN)C(=O)N[C@@H](CCC(N)=O)C(=O)N[C@@H](CCC(N)=O)C(=O)N[C@@H](C)C(=O)N[C@@H](CCCCNC(=O)COCCOCCNC(=O)COCCOCCNC(=O)CC[C@H](NC(=O)CC[C@H](NC(=O)CCCCCCCCCCCCCCCCCCC(=O)O)C(=O)O)C(=O)O)C(=O)N[C@H](C(=O)N[C@@H](CC(N)=O)C(=O)N[C@@H](C)C(=O)N[C@@H](CCC(=O)O)C(=O)N[C@H](C(=O)N[C@@H](CC(C)C)C(=O)N[C@@H](C)C(=O)N[C@@H](CCC(N)=O)C(=O)N[C@H](C(N)=O)C(C)C)[C@@H](C)CC)[C@@H](C)O)[C@@H](C)CC)[C@@H](C)CC)[C@@H](C)CC)C(C)C)[C@@H](C)O)C(C)C

Biological target: T1, human CRHR1 (corticotropin releasing …)
Assay: cell-based or functional assay

Row | Molecule | Average EC50 (nM), cell-based cAMP assay, Y79 cells with endogenous human CRHR1 [nM]
1 | B1 | > 100000
2 | IVLSLDVPIGLLQILLEQARARAAREQATTNARILARV-NH2 (ligand) [human UCN2 (urocortin-2)] | > 100000
3 | B2 | > 100000
4 | B3 | ~10000
5 | B4 | ~100000
6 | [NMeI]VTSLDVPIGLLQILLEQEKQEKEKQQAK([AEEA-AEEA-γGlu-γGlu-C20 diacid])TNAEILAQV-NH2 [Example 5 (SEQ ID NO: 5)] | 33900
7 | [NMeI]VLSLDVPIGLLQILLEQEKQEKEKQQAK([AEEA-AEEA-γGlu-γGlu-C20 diacid])TNAQILAQV-NH2 [Example 4 (SEQ ID NO: 4)] | > 100000
8 | Ac-IVLSLDVPIGLLQILLEQEKQEKEKQQAK([AEEA-AEEA-γGlu-γGlu-C20 diacid])TNAQILAQV-NH2 [Example 2 (SEQ ID NO: 2)] | > 10000

Biological target: human CRHR1 (corticotropin releasing hormone receptor-1) (human) (UniProt P34998)
Assay: cell-based or functional assay

Row | Molecule | Average EC50 (nM), cell-based cAMP assay, Y79 cells with endogenous human CRHR1 [nM]
9 | human UCN1 (urocortin-1) (from UniProt P55089 83-122) (ligand) | 7.3
